This is an account of results in paper PMC6265244, “A synthetic microbial biosensor for high-throughput screening of lactam biocatalysts” (Nature Communications, 2018).

As a reminder, the stoichiometry N is the number of molecules, sites or subunits per partner or assembly. A word on the Km: it is the substrate concentration at which the rate is half of its maximum. By kcat is commonly meant the number of substrate molecules converted per active site and unit of time at saturation. The kcat/Km is the second-order rate constant that governs catalysis at low substrate concentration.

The target of data set [1] is T1, SM3HBD (Serratia marcescens, UniProt A0A2F0PAS1).
T1 construct: gene DMW51_14370
T1 sequence (A0A2F0PAS1 1-256): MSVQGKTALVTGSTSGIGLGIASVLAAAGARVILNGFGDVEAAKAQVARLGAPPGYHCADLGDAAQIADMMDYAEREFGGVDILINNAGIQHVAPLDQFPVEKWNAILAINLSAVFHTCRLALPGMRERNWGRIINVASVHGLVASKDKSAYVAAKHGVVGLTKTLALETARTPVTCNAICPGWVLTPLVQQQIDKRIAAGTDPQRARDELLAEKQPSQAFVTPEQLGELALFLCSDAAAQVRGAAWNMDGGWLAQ
As to the kind of experiment: cyclization assay with purified enzyme, ε-caprolactam formed. It is filed as biochemical.

Data set [2] concerns the target 3-hydroxybutyrate dehydrogenase from Citrobacter freundii (CF3HBD) (Citrobacter freundii). Nature of the data set: crystal structure; hanging-drop vapor diffusion at 20 °C, protein with 5 mM NAD+, 3.2 M sodium acetate pH 6.5; space group P2_(1), four molecules in an asymmetric unit.
For data set [3], the target named is T2, CF3HBD (Citrobacter freundii, UniProt A0A0D7LY80).
T2 construct: gene AI2602V1_2506; tetramer in the asymmetric unit (two subunits NAD+-free)
T2 sequence (A0A0D7LY80 1-256): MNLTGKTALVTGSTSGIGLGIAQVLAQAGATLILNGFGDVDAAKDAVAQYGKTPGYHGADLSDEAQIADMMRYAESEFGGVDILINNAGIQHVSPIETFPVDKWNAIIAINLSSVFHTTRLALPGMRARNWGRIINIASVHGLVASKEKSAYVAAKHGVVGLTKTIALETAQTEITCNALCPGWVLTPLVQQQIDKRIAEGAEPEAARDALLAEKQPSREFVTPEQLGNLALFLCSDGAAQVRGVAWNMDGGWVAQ
As to the kind of experiment: X-ray crystal structure, […] Å. Type of data set: binding. Conditions: 5 mM NAD+, 3.2 M sodium acetate pH 6.5, 20 °C.

Substrate in data set [4]: NCCCCCC(=O)O
Nature of the data set: LC-MS of caprolactam formed, Michaelis-Menten fit. It is filed as biochemical, Citrobacter freundii. The note with it: 50 mM HEPES pH 7.5, 35 °C, 10 min, no cofactor or metal, cyclization to ε-caprolactam.

Take `NCCCCCC(=O)O` [6-aminocaproic acid]: the “cyclization assay with purified enzyme, ε-caprolactam formed” value in data set [1] is “both enzymes showed cyclization activity towards 6-ACA to produce ε-caprolactam”.

For the molecule “3-hydroxybutyrate dehydrogenase from Citrobacter freundii (CF3HBD) (enzyme)”, in data set [2], the stoichiometry N amounted to 4. As for `NC(=O)c1ccc[n+]([C@@H]2O[C@H](COP(=O)(O)OP(=O)(O)OC[C@H]3O[C@@H](n4cnc5c(N)ncnc54)[C@H](O)[C@@H]3O)[C@@H](O)[C@H]2O)c1` [NAD^+], the “X-ray crystal structure, 2.29 Å” value in data set [3] is “we determined the crystal structure of CF3HBD in complex with NAD^+”.

B1: CF3HBD (Citrobacter freundii) (protein)
chain: T2 sequence (A0A0D7LY80 1-256)
notes: tetramer in the asymmetric unit (two subunits NAD+-free)
With B1, in data set [4], the Km was found to be 3.3 ± 0.3 mM, the catalytic constant (kcat) amounted to 0.0012 ± 3.33e-05 s⁻¹ and the kcat/Km is 0.363 ± 0.03 M⁻¹ s⁻¹.
